Experimental findings from publication doi:10.1101/2025.08.12.669882 are described below.

In this assay the target is TG (triacylglycerol). Nature of the assay: TG binding assay with purified proteins, TLC of radiolabeled TG. The settings on record: 2.5 mol % TG; parent: est. 1.5; read off a plot.

For the substance LDAC (m1 + m2) F57A; S61A; L105A; S109A, the response (relative to MBOAT7) stood at 1.2.
